Test results taken from publication PMC4868954.

biological target: complement component C3b (human) (UniProt P01024); assay: SPR

Substance	Kd [µM]
complement receptor 1 CR1 CCP15–17 (residues 942–1,136) (from UniProt P17927 942-1136) (domain or fragment)	1.9
decay-accelerating factor DAF CCP1–4 (domain or fragment)	6.1
factor H FH CCP1–4 (domain or fragment)	7.2
membrane-cofactor protein MCP CCP1–4 (residues 35–285), from E. coli (from UniProt P15529 35-285) (domain or fragment)	0.35
smallpox inhibitor of complement enzymes, SPICE CCP1–4 (residues 19–263) (natural protein)	1.3
